Data set [1] has as its target T1, TnpA (IS608 transposase, Y1 HuH) (UniProt Q933Z0 1-155).
T1 sequence: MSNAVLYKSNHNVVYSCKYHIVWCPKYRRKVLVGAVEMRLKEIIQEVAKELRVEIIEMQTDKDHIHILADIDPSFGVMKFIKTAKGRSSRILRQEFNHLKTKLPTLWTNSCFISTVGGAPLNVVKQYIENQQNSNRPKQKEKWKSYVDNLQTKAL
Kind of data set: EMSA. (In general: In EMSA bound probe runs differently from free probe, usually more slowly.)

A further data set concerns the target Ssb (UniProt P0AGE0 1-178). Kind of data set: EMSA.
Data set [2] deals with T1, TnpA (IS608 transposase, Y1 HuH). Briefly: EMSA. This is another data set of the same source.
The target is the same in data set [3]. Kind of data set: EMSA. The source holds these as a separate data set.
For data set [4] the target is unchanged. Briefly: competition.
The data set “two-hybrid” concerns the molecule itself. Kind of data set: two-hybrid.

Sequence of Ssb (P0AGE0 whole entry): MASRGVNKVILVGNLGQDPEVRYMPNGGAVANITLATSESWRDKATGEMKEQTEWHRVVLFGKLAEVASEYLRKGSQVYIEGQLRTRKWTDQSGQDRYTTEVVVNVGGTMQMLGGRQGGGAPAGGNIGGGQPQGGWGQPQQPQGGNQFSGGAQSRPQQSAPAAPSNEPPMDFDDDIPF

B1: fork / flap (L73 + L76l + L77) (mixed)
DNA 1: GTGATGACCTGTCGCCTCTGCCCGAAGACTCTAGATCGATACAAGCTACGCCTCTCAGCTCCGATGATGACGCTC
DNA 2: GAGCGTCATCATCGGAGCTGAGAGGCGTAGCTTGTATCTAGGAAGCCGCTGTAGCTCTCGCAATCAGCAGCCTTGTGCCG
DNA 3: CGGCACAAGGCTGCTGATTGCGAGAGCTACAGCGGCTTCCTA
As for B1, the binding result in data set [1] is recorded as “binds”.

B2: ss target 125 nt (S56) (ssDNA)
DNA: GTGATGTCCTGTCGCCTCTGCCCGAAGACTCTATTACGATTCAAGCTTCGCCTCTCAGCTCCGATGATGTCGCTCATGCCTGCAGCAATGGCAACAACGAACGGCAAACTATTAACTGGCGAACT
Take B2: the binding result in the data set with Ssb is on record as “binds”.

B3: ss60 (LE80 with 60-nt ss tail, S46) (structured_DNA)
DNA: CGCTAGTGCAAAAATTACCAAAACTAACGCCTTAAAGCCCCTAGCTTTTAGCTATGGGGATACAAGGCGAAACGCCTTCTGATGTCCTGTCGCCTCTGCCCGAAGACTCTAGATCGATTCAAGCTTCGCCTCTCAGCT
Turning to B3, the binding result in data set [2] is “binds”.

B4: ds60 (S46 + S44) (mixed)
DNA 1: B3 DNA
DNA 2: AGCTGAGAGGCGAAGCTTGAATCGATCTAGAGTCTTCGGGCAGAGGCGACAGGACATCAG
On to B4, for which, in data set [3], the binding result is “binds”.

B5: LE100 (structured_DNA)
DNA: CGGGCTGCAGGAATTCGATTTGCGCTAGTGCAAAAATTACCAAAACTAACGCCTTAAAGCCCCTAGCTTTTAGCTATGGGGATACAAGGCGAAACGCCTT
With B5, the binding result in data set [4] is “binds”.

B6: TnpAIS608, transposase of IS608, BACTH hybrid (T25-TnpAIS608 or TnpAIS608-T18) (enzyme, Helicobacter pylori (IS608), UniProt Q933Z0 1-155, looked up)
chain: T1 sequence
Turning to B6, in the data set “two-hybrid”, the “β-galactosidase activity, fold above negative control” value was 5 fold.

Values taken from paper PMC5027513 (Nucleic Acids Research, 2016).
